These results are taken from patent publication US20230192831A1.

Assay [1] addresses recombinant human GREM1 (hGREM1-His; C-terminal 10His tagged, R&D, #5190-GR) (human) (UniProt O60565). Description: BLI Octet, captured mAb, 100 nM GREM1. For orientation: BLI is a label-free optical method that tracks binding on a fibre tip over time.
The target is the same in assay [2]. Description: BLI Octet, captured mAb, 100 nM GREM1 + 5 uM heparin.
Assay [3] shares this target. Description: cell-based or functional assay.
Assay [4] has the same target. Description: BLI Octet, captured mAb, 100 nM GREM1 without vs with 5 uM heparin.

Sequence of recombinant human GREM1 (hGREM1-His; C-terminal 10His tagged, R&D, #5190-GR) (human) (O60565 other isoform, or with tags, fused parts or gaps limits assumed, form in doubt): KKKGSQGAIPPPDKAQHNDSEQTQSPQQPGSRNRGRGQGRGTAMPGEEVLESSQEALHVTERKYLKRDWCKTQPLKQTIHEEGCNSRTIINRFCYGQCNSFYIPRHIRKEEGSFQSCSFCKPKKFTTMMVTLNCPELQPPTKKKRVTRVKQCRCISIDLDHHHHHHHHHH

B1: H4H2889N (antibody, human IgG4, V domains shown)
VH: QVQLQESGPGLVKPSETLSLTCTVSGGSISNSYWSWIRQPPGKGLEWIGYIYYSGNTNYNPSLKSRVTISVDTSKNQFSLKLSSVTAADTAVYYCARVNDYSNYDSYYYGMDVWGQGTTVTVSS
VL: AIQMTQSPSSLSASVGDRVTITCRASQGIRNDLGWYQQKPGKAPKLLIYAASSLQSGVPSRFSGSGSGTDFTLTISSLQPEDFATYYCLQDYNYPPTFGQGTKVDIK
As to B1, in assay [1], the Binding Signal with 30 sec Association (nm) was found to be 0.2 nm and the Binding Signal with 300 sec Association (nm) worked out at 0.46 nm. Further, in assay [2], the Binding Signal with 30 sec Association (nm) came to 0.05 nm and the Binding Signal with 300 sec Association (nm) worked out at 0.44 nm. Also, in assay [3], the IC50 [M], W-20-17/BRE-luc luciferase bioassay, 100 pM hBMP4 and 10 nM hGREM1-His was found to be 1.2e-09 M; the hGREM1-His Inhibition IC50, M; W-20-17 cell differentiation assay (alkaline phosphatase) is 5.4 nM. Moreover, in assay [4], the Reduction in Signal from Heparin at 30 sec worked out at 0.15 nm and the Reduction in Signal from Heparin at 300 sec worked out at 0.02 nm.

B2: H4H6269P (antibody, human IgG4, V domains shown)
VH: QVQLQESGPGLVKPSQTLSLTCTVSGGSISSGGYYWTWIRQHPGKGLEWIGYIYYSGSTYYNPSLKSRVTMSVDTSKNQFSLKLSSVTAADTAVYYCARLLDFDYWGQGTLVTVSS
VL: AIQMTQSPSSLSASVGDRVTITCRASQGIRNDLGWYQQKPGKAPKLLIYAASSLQSGVPSRFSGSGSGRDFTLTISSLQPEDFASYYCLQDHNYPLTFGGGTKVEIK
On to B2, for which, in assay [1], the Binding Signal with 30 sec Association (nm) turned out to be 0.15 nm and the Binding Signal with 300 sec Association (nm) was 0.6 nm. In assay [2], the Binding Signal with 30 sec Association (nm) came to 0.14 nm and the Binding Signal with 300 sec Association (nm) came out at 0.52 nm. In addition, in assay [4], the Reduction in Signal from Heparin at 30 sec was determined as 0.01 nm and the Reduction in Signal from Heparin at 300 sec turned out to be 0.08 nm.

B3: H4H2926N (antibody, human IgG4, V domains shown)
VH: EVQLVESGGGLVQTGRSLRLSCAASGFTFDDYAMNWVRQAPGKGLEWVSGISWNSGNIGYADSVKGRFTISRDNAKNSLYLQMNSLRAEDTALYYCVKYIGQQLVQDYFDYWGQGTLVTVSS
VL: DIQMTQSPSSLSASVGDRVTITCQASQDITNYLNWYQQRPGKAPKLLIYDAFNLERGVPSRFSGSGYGTYFTFTISSLQPEDIAIYYCQQYDNLPLTFGGGTKVEIE
For the molecule B3, in assay [1], the Binding Signal with 30 sec Association (nm) amounted to 0.23 nm and the Binding Signal with 300 sec Association (nm) stood at 0.49 nm. Further, in assay [2], the Binding Signal with 30 sec Association (nm) is 0.07 nm and the Binding Signal with 300 sec Association (nm) was determined as 0.42 nm. In assay [3], the IC50 [M], W-20-17/BRE-luc luciferase bioassay, 100 pM hBMP4 and 10 nM hGREM1-His came to 1.2e-09 M; the hGREM1-His Inhibition IC50, M; W-20-17 cell differentiation assay (alkaline phosphatase) was determined as 13 nM. Also, in assay [4], the Reduction in Signal from Heparin at 30 sec came out at 0.16 nm and the Reduction in Signal from Heparin at 300 sec came to 0.07 nm.

B4: H4H2892N (antibody, human IgG4, V domains shown)
VH: QVQLVESGGGVVQPGRSLRLSCAASGFTFSSYGIHWVRQAPGKGLEWVAILWYDGSNKYYADSVKGRFTISRDNSKTTLYLQMNSLRAEDTAVYYCARENYNDLNFDLWGRGTLVTVSS
VL: DIQLTQSPSFLSASVGDRVTITCWASQGISSYLAWYQHKPGKAPKLLIYAASTLQSGVPSRFSGSGSGIEFTLTISSLQPEDFATYYCQQLKSYPPWTFGQGTKVEIR
Turning to B4, in assay [1], the Binding Signal with 30 sec Association (nm) worked out at 0.2 nm and the Binding Signal with 300 sec Association (nm) came to 0.49 nm. Moreover, in assay [2], the Binding Signal with 30 sec Association (nm) turned out to be 0.15 nm and the Binding Signal with 300 sec Association (nm) amounted to 0.49 nm. Further, in assay [3], the IC50 [M], W-20-17/BRE-luc luciferase bioassay, 100 pM hBMP4 and 10 nM hGREM1-His is 9.5e-10 M; the hGREM1-His Inhibition IC50, M; W-20-17 cell differentiation assay (alkaline phosphatase) came to 4.4 nM. Also, in assay [4], the Reduction in Signal from Heparin at 30 sec turned out to be 0.05 nm and the Reduction in Signal from Heparin at 300 sec turned out to be 0 nm.

B5: H4H2780N (antibody, human IgG4, V domains shown)
VH: EVQLVESGGGLVKPGGSLRLSCAASGFTFSTYSMNWVRQAPGKGLEWVSSISSGSSYIYYTDSVKGRFTISRDNAKNSLYLQMNSLRAEDTAVYYCARFGSYYYFGFDVWGQGTTVTVSS
VL: DIQMTQSPSSLSASVGDRVTITCRASQGISNYLAWYQQKPGKVPKLLIFSASTLQSGVPSRFSGSGSGPDFTLTVSSLQPEDVATYYCQKYNSAPFAFGPGTKVDIK
As to B5, in assay [1], the Binding Signal with 30 sec Association (nm) was 0.13 nm and the Binding Signal with 300 sec Association (nm) amounted to 0.58 nm. In assay [2], the Binding Signal with 30 sec Association (nm) is 0.13 nm and the Binding Signal with 300 sec Association (nm) turned out to be 0.58 nm. In addition, in assay [3], the IC50 [M], W-20-17/BRE-luc luciferase bioassay, 100 pM hBMP4 and 10 nM hGREM1-His worked out at 49. In addition, in assay [4], the Reduction in Signal from Heparin at 30 sec is 0 nm and the Reduction in Signal from Heparin at 300 sec was 0 nm.

B6: H4H2895N (antibody, human IgG4, V domains shown)
VH: EVQLVESGGGLVQPGGSLRLSCAASGFTVSSNYMSWVRQAPGKGLEWVSVIYSGGNTYYADSVKGRFTISRHNSKNTLYLQMNSLRAEDTAVYYCARDLGIKSDYWGQGTLVTVSS
VL: EIVLTQSPDFQSVTPKEKVTITCRASQSIGTTLHWYQQKPDQSPKLLIKYVSQSLSGVPSRFSGSGSGTDFTLTINSLEAEDAATYYCHQSSSLPWTFGQGTKVEIK
Consider B6, for which, in assay [1], the Binding Signal with 30 sec Association (nm) came out at 0.15 nm and the Binding Signal with 300 sec Association (nm) was 0.5 nm. In addition, in assay [2], the Binding Signal with 30 sec Association (nm) was found to be 0.22 nm and the Binding Signal with 300 sec Association (nm) came to 0.54 nm. Further, in assay [3], the IC50 [M], W-20-17/BRE-luc luciferase bioassay, 100 pM hBMP4 and 10 nM hGREM1-His stood at 5.8e-10 M; the hGREM1-His Inhibition IC50, M; W-20-17 cell differentiation assay (alkaline phosphatase) came out at 1.9 nM. For the same molecule, in assay [4], the Reduction in Signal from Heparin at 30 sec is -0.07 nm and the Reduction in Signal from Heparin at 300 sec is -0.04 nm.

B7: H4H6232P (antibody, human IgG4, V domains shown)
VH: QVQLVQSGAEVKKPGASVKVSCKVSGYTLTELSMHWVRQAPGKGLEWMGGFDPEDGETIYAQKFQGRLTMTEDTSTDTAYMELSSLRSEDTAVYYCATDDYDILTSYPYNMDVWGQGTTVTVSS
VL: DIQMTQSPSSLSASVGDRVTITCRASQSINNYLNWYQQKPGKAPKLLIYAASSLQSGVPSRFSGSGSGTDFTLTISSLQPEDFGTYYCQQSDSTPFTFGPGTKVDIK
With B7, in assay [1], the Binding Signal with 30 sec Association (nm) was 0.33 nm and the Binding Signal with 300 sec Association (nm) was found to be 0.48 nm. Also, in assay [2], the Binding Signal with 30 sec Association (nm) stood at 0.06 nm and the Binding Signal with 300 sec Association (nm) was found to be 0.46 nm. Moreover, in assay [3], the IC50 [M], W-20-17/BRE-luc luciferase bioassay, 100 pM hBMP4 and 10 nM hGREM1-His was found to be 7.8e-10 M; the hGREM1-His Inhibition IC50, M; W-20-17 cell differentiation assay (alkaline phosphatase) worked out at 4.5 nM. In addition, in assay [4], the Reduction in Signal from Heparin at 30 sec worked out at 0.27 nm and the Reduction in Signal from Heparin at 300 sec worked out at 0.02 nm.

B8: H4H6243P (antibody, human IgG4, V domains shown)
VH: QVQLVQSGAEVKKPGASVKVSCKVSGYTLTELSMHWVRQAPGKGLEWMGGFDPEDGETIYAQKFQDRVTMTEDTSTDTAYMELSSLRSEDTAVYYCVTDDYEILPEYPYNMDVWGQGTTVTVSS
VL: DIQMTQSPSSLSASVGDRVTITCRASQSISTYLNWYQQKPGKAPKLLIYAASSLQSGVPSRFSGSGSGTDFTLTIRSLQPEDFATYYCQQSHITPFTFGPGTKVDIK
For B8, in assay [1], the Binding Signal with 30 sec Association (nm) was 0.3 nm and the Binding Signal with 300 sec Association (nm) turned out to be 0.47 nm. For the same molecule, in assay [2], the Binding Signal with 30 sec Association (nm) was 0 nm and the Binding Signal with 300 sec Association (nm) was found to be 0.21 nm. Moreover, in assay [3], the IC50 [M], W-20-17/BRE-luc luciferase bioassay, 100 pM hBMP4 and 10 nM hGREM1-His is 5.4e-10 M; the hGREM1-His Inhibition IC50, M; W-20-17 cell differentiation assay (alkaline phosphatase) is 5.9 nM. In assay [4], the Reduction in Signal from Heparin at 30 sec stood at 0.3 nm and the Reduction in Signal from Heparin at 300 sec is 0.26 nm.

B9: H4H2783N2 (antibody, human IgG4, V domains shown)
VH: EVQLLESGGGLVQPGGSLRLSCAASGFTFSSYVMNWVRQAPGKGLEWVSAISGSGGSTYYADSVKGRSTISRDNSKNTLYLQMNSLRAEDTAIYYCAKGDIAAIVFDAFDIWGQGTVVTVSS
VL: DIQMTQSPSSLSASVGDRVTITCQASQDISSALNWYQHKPGKAPKLLIYDASYLETGVPSRFSGSGSGTDFTFTISSLQPEDIATYYCQQYDNLPYTFGQGTKLEIK
Take B9: in assay [1], the Binding Signal with 30 sec Association (nm) came to 0.29 nm and the Binding Signal with 300 sec Association (nm) is 0.47 nm. Also, in assay [2], the Binding Signal with 30 sec Association (nm) is 0.01 nm and the Binding Signal with 300 sec Association (nm) was 0.29 nm. In addition, in assay [3], the IC50 [M], W-20-17/BRE-luc luciferase bioassay, 100 pM hBMP4 and 10 nM hGREM1-His was found to be 1.3e-09 M; the hGREM1-His Inhibition IC50, M; W-20-17 cell differentiation assay (alkaline phosphatase) stood at 5.6 nM. Besides, in assay [4], the Reduction in Signal from Heparin at 30 sec is 0.28 nm and the Reduction in Signal from Heparin at 300 sec amounted to 0.18 nm.

B10: H4H6245P (antibody, human IgG4, V domains shown)
VH: EVQLVESGGGLVQPGGSLRLSCAASGFTFNSFWMSWVRQAPGKGLEWVANIKQDGSEKYYVDSVKGRFTISRDNAKNSVYLQMNSLRAEDTAVYYCARDLVTSFDYWGQGTLVTVSS
VL: DIQMTQSPSSLSASVGDRVTITCQASQDINNYLNWYQQKPGKAPKLLIYDASYLETGVPSGFSGSGSGTDFTFTISSLQPEDIATYYCQQYDSLPYTFGQGTKLEIK
Take B10: in assay [1], the Binding Signal with 30 sec Association (nm) amounted to 0.23 nm and the Binding Signal with 300 sec Association (nm) stood at 0.41 nm. In assay [2], the Binding Signal with 30 sec Association (nm) came to 0.02 nm and the Binding Signal with 300 sec Association (nm) came out at 0.22 nm. Also, in assay [3], the IC50 [M], W-20-17/BRE-luc luciferase bioassay, 100 pM hBMP4 and 10 nM hGREM1-His was determined as 5.3e-10 M; the hGREM1-His Inhibition IC50, M; W-20-17 cell differentiation assay (alkaline phosphatase) worked out at 6.1 nM. Besides, in assay [4], the Reduction in Signal from Heparin at 30 sec worked out at 0.21 nm and the Reduction in Signal from Heparin at 300 sec worked out at 0.19 nm.

B11: H4H6240P (antibody, human IgG4, V domains shown)
VH: QVQLVESGGGVVQPGRSLRLSCAASGFTFSSYGMHWVRQAPGKGLEWVAVIWYDGSNKYYADSVKGRFIISRDNSKNMMYLQMNSLRAEDTAVYYCAREDNWNYAFDYWGQGTLVTVSS
VL: EIVMTQSPATLSVSPGERATLSCRASQSISSNLAWYQQKPGQAPRLLIYDSSTRATGIPARFSGSGSGTQFTLTISSLQSEDFALYYCQQYSNWPPFTFGPGTKVDIK
For the molecule B11, in assay [1], the Binding Signal with 30 sec Association (nm) is 0.23 nm and the Binding Signal with 300 sec Association (nm) is 0.53 nm. In assay [2], the Binding Signal with 30 sec Association (nm) is 0.05 nm and the Binding Signal with 300 sec Association (nm) is 0.37 nm. Further, in assay [3], the IC50 [M], W-20-17/BRE-luc luciferase bioassay, 100 pM hBMP4 and 10 nM hGREM1-His is 8.1e-10 M; the hGREM1-His Inhibition IC50, M; W-20-17 cell differentiation assay (alkaline phosphatase) was found to be 7.8 nM. Also, in assay [4], the Reduction in Signal from Heparin at 30 sec is 0.18 nm and the Reduction in Signal from Heparin at 300 sec stood at 0.16 nm.
